Article PMC5241945, “A new enzyme-linked immunosorbent assay (ELISA) for human free and bound kallikrein 9” (Clinical Proteomics, 2017)

Target: T1, human recombinant serpinA3 inhibitor (R&D systems) (human, UniProt P01011 24-423)
T1 construct: alpha-1-antichymotrypsin (serpinA3), human, recombinant; also called a1-antichymotrypsin; ACT; source: bought: R&D Systems
T1 sequence (looked up): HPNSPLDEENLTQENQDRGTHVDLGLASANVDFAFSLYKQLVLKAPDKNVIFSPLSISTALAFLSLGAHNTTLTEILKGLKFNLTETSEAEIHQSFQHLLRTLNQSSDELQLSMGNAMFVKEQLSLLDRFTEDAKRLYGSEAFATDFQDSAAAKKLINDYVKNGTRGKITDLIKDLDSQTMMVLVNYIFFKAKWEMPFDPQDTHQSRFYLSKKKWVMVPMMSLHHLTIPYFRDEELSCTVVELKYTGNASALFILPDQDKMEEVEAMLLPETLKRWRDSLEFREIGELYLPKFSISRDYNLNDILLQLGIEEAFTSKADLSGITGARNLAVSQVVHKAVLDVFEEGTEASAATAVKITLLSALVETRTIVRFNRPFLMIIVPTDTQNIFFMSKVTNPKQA
Assay: ELISA; mat-KLK9 (0.5 μg) incubated alone or with recombinant serpinA3 at molar ratios KLK9/serpinA3 1/0.2, 1/0.5, 1/1 and 1/2 in 50 mM Tris-HCl pH 8.0, 1 h, 37 °C; the free KLK9 left was then measured by the sandwich ELISA (28ED436 / biotinylated 4ED28.2) as % recovery against the control without inhibitor
Details: both partners purified

binding result: binds
B1: mature form of KLK9 (mat-KLK9) (aa 23–250), recombinant (enzyme, human, UniProt Q9UKQ9 23-250, looked up)
chain: AIGAEECRPNSQPWQAGLFHLTRLFCGATLISDRWLLTAAHCRKPYLWVRLGEHHLWKWEGPEQLFRVTDFFPHPGFNKDLSANDHNDDIMLIRLPRQARLSPAVQPLNLSQTCVSPGMQCLISGWGAVSSPKALFPVTLQCANISILENKLCHWAYPGHISDSMLCAGLWEGGRGSCQGDSGGPLVCNGTLAGVVSGGAEPCSRPRRPAVYTSVCHYLDWIQEIMEN
notes: Human tissue kallikrein 9 (KLK9), UniProt Q9UKQ9 (KLK9_HUMAN); mature form aa 23-250 of the pre-pro-enzyme (1-250), lacking the signal peptide and the pro-segment; Glycosylated: migrates at ~42 kDa, ~25 kDa after PNGase F; also called mature KLK9; kallikrein 9
